The values that follow come from paper PMC6921004, “Structural Characterization of Full-Length Human Dehydrodolichyl Diphosphate Synthase Using an Integrative Computational and Experimental Approach” (Biomolecules, 2019).

The term Km denotes the concentration of substrate that gives half-maximal velocity. Usually kcat stands for the maximal rate divided by the concentration of active sites. In general, stoichiometry N refers to a count of units in the complex or per binding partner.

Substrate in series [1]: C=C(C)CCO[P@@](=O)(O)OP(=O)(O)O
The series is described as follows: purified protein. The following applies: 10 μM FPP, 0.5 μM protein, labelled compound (^14C), Tris-HCl pH 7.5, 150 mM NaCl, 20 mM β-mercaptoethanol, 0.1% Triton X-100, 30 °C, homodimer without NgBR.

Substrate in series [2]: CC(C)=CCC/C(C)=C/CC/C(C)=C/CO[P@@](=O)(O)OP(=O)(O)O
The series is described as follows: purified protein. It is filed as biochemical, Homo sapiens. The conditions noted are these: 20 μM ^14C-IPP, 0.1 μM protein, Tris-HCl pH 7.5, 150 mM NaCl, 20 mM β-mercaptoethanol, 0.1% Triton X-100, 30 °C, homodimer without NgBR.

Series [3] deals with the molecule itself. The series is described as follows: SEC-MALS; Superdex-200 increase 10/300 GL; Tris-HCl pH 7.5, 150 mM NaCl, 20 mM beta-mercaptoethanol, 0.02% Triton X-100; sample 2 mg/mL, 50 uL.

B1: human dehydrodolichyl diphosphate synthase (DHDDS), full-length homodimer (Homo sapiens) (protein)
chain: MSWIKEGELSLWERFCANIIKAGPMPKHIAFIMDGNRRYAKKCQVERQEGHSQGFNKLAETLRWCLNLGILEVTVYAFSIENFKRSKSEVDGLMDLARQKFSRLMEEKEKLQKHGVCIRVLGDLHLLPLDLQELIAQAVQATKNYNKCFLNVCFAYTSRHEISNAVREMAWGVEQGLLDPSDISESLLDKCLYTNRSPHPDILIRTSGEVRLSDFLLWQTSHSCLVFQPVLWPEYTFWNLFEAILQFQMNHSVLQKARDMYAEERKRQQLERDQATVTEQLLREGLQASGDAQLRRTRLHKLSARREERVQGFLQALELKRADWLARLGTASA
notes: full-length; expressed in E. coli T7 express from pET-32b as thioredoxin-6xHis fusion, tag and fusion removed by TEV protease; without NgBR
For the protein B1, in series [1], the Km turned out to be 9.3 ± 2.8 µM and the turnover number (kcat) stood at 0.0011 ± 0.0001 s⁻¹. Besides, in series [2], the Michaelis constant (Km) turned out to be 0.45 ± 0.1 µM and the kcat stood at 0.0011 ± 0.0001 s⁻¹.

B2: Dehydrodolichyl diphosphate synthase (DHDDS), full-length human (enzyme, UniProt Q86SQ9 1-333, looked up)
chain: B1 chain
notes: Dehydrodolichyl diphosphate synthase (DHDDS), human, UniProt Q86SQ9, full length; synthesized gene cloned into pET-32b between NdeI and BamHI; Expressed as a TRX fusion with a 6xHis-tag and a TEV site; the tag and the fusion were removed by TEV protease; also called hDHDDS; human DHDDS; source: E. coli T7 express, purified (TALON-Superflow, TEV cleavage, second TALON-Superflow, Superdex-200 SEC)
Turning to B2, in series [3], the “stoichiometry N” value was 2.
